Test results published in US11578136B2, “Compositions and methods for treating cancer” (INNATE PHARMA, priority 2017, dated 2023).

T1: soluble recombinant human CD39 protein (Homo sapiens, UniProt P49961)
T1 construct: made in house; host or cells: CHO cells
T1 sequence (P49961 with tags, fused parts or gaps): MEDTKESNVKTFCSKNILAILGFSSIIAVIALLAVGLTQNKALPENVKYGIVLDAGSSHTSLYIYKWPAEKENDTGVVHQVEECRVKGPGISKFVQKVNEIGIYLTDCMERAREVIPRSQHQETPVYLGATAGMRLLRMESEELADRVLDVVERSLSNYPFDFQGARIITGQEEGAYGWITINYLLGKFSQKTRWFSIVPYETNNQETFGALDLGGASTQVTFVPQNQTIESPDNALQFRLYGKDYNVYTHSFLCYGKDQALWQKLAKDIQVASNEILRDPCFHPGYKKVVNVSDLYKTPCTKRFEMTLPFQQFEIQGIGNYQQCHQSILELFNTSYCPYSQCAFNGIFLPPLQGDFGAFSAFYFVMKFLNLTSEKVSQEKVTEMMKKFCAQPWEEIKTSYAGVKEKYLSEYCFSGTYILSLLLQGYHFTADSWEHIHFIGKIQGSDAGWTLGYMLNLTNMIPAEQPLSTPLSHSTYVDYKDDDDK

B1: I-399: anti-CD39 antibody, VH SEQ ID NO: 30, VL SEQ ID NO: 31 (antibody, listed as Mus musculus, V domains shown)
VH: PVQLQQPGAEVVMPGASVKLSCKASGYTFTSFWMNWMRQRPGQGLEWIGEIDPSDFYTNSNQRFKGKATLTVDKSSSTAYMQLSSLTSEDSAVYFCARGDFGWYFDVWGTGTSVTVSS
VL: EIVLTQSPTTMTSSPGEKITFTCSASSSINSNYLHWYQQKPGFSPKLLIYRTSNLASGVPTRFSGSGSGTSYSLTIGTMEAEDVATYYCQQGSSLPRTFGGGTKLEIK

Key:
[1] = tested on: NTPDase1, NTPDase3, NPP1 or mouse NTPDase8; details: not specific for CD39; cited from earlier work
[2] = target: T1, soluble recombinant human CD39 protein; experiment: Inhibition of the enzymatic activity of soluble CD39 (Cell Titer Glo); format: biochemical; details: result in words; 400 ng/ml sCD39, 20 μM ATP
Experimental: The inhibition by antibodies of the enzymatic activity of soluble CD39 protein produced was evaluated using Cell Titer Glo™ (Promega, reference G7571) that allows assessment of ATP hydrolysis through use of a reagent that generates a luminescent signal proportional to the amount of ATP present. In this way, inhibition of the soluble-CD39-meidatd ATP hydrolysis can be assessed. Briefly, dose ranges of anti-CD39 antibodies from 100 μg/ml to 6×10^−3 μg/ml were incubated with 400 ng/ml of soluble recombinant human CD39 protein having the amino acid sequence described in the Methods section (SEQ ID NO: 45), for 1 h at 37° C. 20 μM ATP was added to the plates for 30 additional minutes at 37° C. before addition of CTG (Cell Titer Glo) reagent. Emitted light was quantified using an Enspire™ luminometer after a short incubation period of 5 min in the dark. Anti-CD39 antibody efficacy was determined by comparing emitted light in presence of antibody with ATP alone (maximal light emission) and ATP together with soluble CD39 protein (minimal light emission).

[3] = tested on: CD39 mutants transfected in Hek-293T cells; experiment: Epitope mapping: binding to CD39 mutants by flow cytometry; set-up: species or system human
Experimental: CD39 mutants were generated by PCR. The sequences amplified were run on agarose gel and purified using the Macherey Nagel PCR Clean-Up Gel Extraction kit (reference 740609). The purified PCR products generated for each mutant were then ligated into an expression vector, with the ClonTech InFusion system. The vectors containing the mutated sequences were prepared as Miniprep and sequenced. After sequencing, the vectors containing the mutated sequences were prepared as Midiprep using the Promega PureYield™ Plasmid Midiprep System. HEK293T cells were grown in DMEM medium (Invitrogen), transfected with vectors using Invitrogen's Lipofectamine 2000 and incubated at 37° C. in a CO2 incubator for 48 hours prior to testing for transgene expression. The targeted amino acid mutations in the table 1 below are shown using numbering of SEQ ID NO: 1.
In order to define the epitopes of anti-CD39 antibodies, we designed CD39 mutants defined by substitutions of amino acids exposed at the molecular surface over the surface of CD39. Mutants were transfected in Hek-293T cells, as shown in the table 1, using numbering of SEQ ID NO: 1.
Dose-ranges of I-394 (10-2.5-0.625-0.1563-0.0391-0.0098-0.0024-0.0006 μg/ml) are tested on the 20 generated mutants by flow cytometry. […] Mutant 5 contains amino acid substitutions at residues Q96, N99, E143 and R147.
Mutants were transfected in Hek-293T cells, as shown in the table 1, using numbering of SEQ ID NO: 1. Dose-ranges of antibodies I-394 were tested on the 20 mutants by flow cytometry. […] Mutant 19 includes substitutions at residues R138, M139 and E142. The core epitope of I-394 thus includes one or more (or all of) residues R138, M139 and E142.
Mutants were transfected in Hek-293T cells, as shown in the table 1, using numbering of SEQ ID NO: 1.Dose-ranges of test antibodies (10-2.5-0.625-0.1563-0.0391-0.0098-0.0024-0.0006 μg/ml) are tested on the 20 generated mutants by flow cytometry.

Row | Molecule | type of inhibition of NTPDases [1] | inhibition of the enzymatic activity of soluble CD39 protein [2] | binding to mutant 11 of CD39 ([3]; mutant 11: N371K, L372K, E375A, K376G, V377A, insertion 377V) | binding to any other mutant of the 20 CD39 mutants ([3]; remaining mutants of Table 1)
1 | CCN(CC)c1ncnc2c1ncn2[C@@H]1O[C@H](COP(=O)(O)OP(=O)(O)C(Br)(Br)P(=O)(O)O)[C@@H](O)[C@H]1O [ARL67156] | weak competitive inhibitor | – | – | –
2 | B1 | – | showed inhibition | loss of binding | without loss of binding
